T1: human CD160 (CD160 GPI isoform) on cells (human, UniProt O95971 25-159, GPI anchor)
T1 sequence (looked up): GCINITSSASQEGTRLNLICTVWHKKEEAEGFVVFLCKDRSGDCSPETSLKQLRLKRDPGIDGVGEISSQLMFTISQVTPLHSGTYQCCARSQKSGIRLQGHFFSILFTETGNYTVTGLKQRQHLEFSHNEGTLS

T2: recombinant human CD160 protein, soluble form, with a C-terminal tag of 6 histidine residues (R&D SYSTEMS) (human, UniProt O95971 27-159, limits assumed, biotinylated with EZ-Link sulfo-NHS-LC-biotin for BLI and ELISA; not biotinylated when immobilised on the CM5 chip for SPR)
T2 construct: domain: soluble form; Bought protein; also called hCD160-his; biotinylated CD160
T2 sequence: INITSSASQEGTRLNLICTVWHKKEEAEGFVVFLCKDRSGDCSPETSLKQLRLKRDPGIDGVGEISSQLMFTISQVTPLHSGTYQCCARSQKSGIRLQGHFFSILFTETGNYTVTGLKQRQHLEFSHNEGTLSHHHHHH

B1: D12 in the IgG1 format (antibody)
heavy: not shown
light: EIVLTQSPATLSLSPGERATLSCRASQSISNHLHWYQQKPGQAPRLLIKYASQSISGIPARFSGSGSGTDFTLTISSLEPEDFAVYFCQQSNSWPLTFGGGTKVEIKRTVAAPSVFIFPPSDEQLKSGTASVVCLLNNFYPREAKVQWKVDNALQSGNSQESVTEQDSKDSTYSLSSTLTLSKADYEKHKVYACEVTHQGLSSPVTKSFNRGEC
notes: also called ELB02102
B2: H7 D12 in the Fab linker Fab format (other)
heavy: QVQLVQSGAEVKKPGASVKVSCKASGYTFSDFWMQWIRQAPGQGLEWIGAIYPGDDDARVTQKFRGRATLTADKSTSTAYMELSSLRSEDTAVYYCARRGIAAVVGGFDYWGQGTTLTVSSASTKGPSVFPLAPSSKSTSGGTAALGCLVKDYFPEPVTVSWNSGALTSGVHTFPAVLQSSGLYSLSSVVTVPSSSLGTQTYICNVNHKPSNTKVDKRVEPKSCDKGGGGSGGGGSGGGGSQVQLVQSGAEVKKPGASVKVSCKASGYTFSDFWMQWIRQAPGQGLEWIGAIYPGDDDARVTQKFRGRATLTADKSTSTAYMELSSLRSEDTAVYYCARRGIAAVVGGFDYWGQGTTLTVSSASTKGPSVFPLAPSSKSTSGGTAALGCLVKDYFPEPVTVSWNSGALTSGVHTFPAVLQSSGLYSLSSVVTVPSSSLGTQTYICNVNHKPSNTKVDKRVEPKSCDK
light: B1 light
notes: two light chains follow from the format; also called ELB01132; D12 Fab linker Fab
B3: anti-CD160 H7 antibody in the human IgG1 format (antibody)
heavy: not shown
light: B1 light
notes: also called H7 IgG1; ELB02101
B4: D12 in the IgG1 E345K format (antibody)
heavy: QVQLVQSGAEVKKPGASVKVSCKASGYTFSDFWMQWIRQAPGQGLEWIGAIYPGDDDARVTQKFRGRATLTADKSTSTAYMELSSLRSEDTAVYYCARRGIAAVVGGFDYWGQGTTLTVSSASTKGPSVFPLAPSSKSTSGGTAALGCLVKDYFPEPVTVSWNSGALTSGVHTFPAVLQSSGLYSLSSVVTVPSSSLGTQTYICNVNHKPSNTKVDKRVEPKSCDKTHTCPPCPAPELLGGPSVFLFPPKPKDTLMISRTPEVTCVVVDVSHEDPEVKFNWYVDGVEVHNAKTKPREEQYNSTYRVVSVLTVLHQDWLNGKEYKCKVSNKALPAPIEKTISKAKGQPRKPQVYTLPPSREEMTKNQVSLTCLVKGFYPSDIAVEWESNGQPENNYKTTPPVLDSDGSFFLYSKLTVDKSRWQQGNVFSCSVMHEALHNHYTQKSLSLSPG
light: B1 light
notes: also called ELB02112
B5: A09 in the IgG1 format (antibody)
heavy: not shown
light: B1 light
notes: also called ELB02104; H7 A09 variant in IgG1 format

Experiments:
[1] = target: T1, human CD160 (CD160 GPI isoform) on cells; assay: cell-based or functional assay
[2] = target: T2, recombinant human CD160 protein, …; assay: BLI
[3] = target: T1, human CD160 (CD160 GPI isoform) on cells; assay: flow cytometry on CHO-hCD160 transfectants
Experimental: The binding capacity of the anti-CD160 H7 antibodies and of the variants (D12 and A09) thereof in the IgG4 and IgG1 format and in the IgG1 E345K format was evaluated during the labelling of surface CD160 expressed in a recombinant line CHO-S-hCD160 (clone 2G10) in comparison with non-transfected CHO-S cells, by measuring the median fluorescence index (MFI) (see FIG. 1). For this, 5×10⁺⁵ 2G10 (CHO-S-CD160) and non-transfected CHO-S cells were labelled with 2 μg of each of these antibodies and also with the appropriate control isotypes. In FIG. 1, all the anti-CD160 tested (regardless of the isotype or the IgG format or the variant) specifically recognize human CD160 expressed recombinantly by the CHO-S cells.
In FIG. 1B, the IgG4 variants bind more efficiently to the CHO-hCD160 transfectants than H7 (which results in a median fluorescence increased by a factor of 2 compared with H7 IgG4 ELB01101 or with H7 IgG4 H310A-H435Q ELB01102), this being even in the presence of the H310A-H435Q mutations.

[4] = target: T2, recombinant human CD160 protein, …; assay: BLI (repeats Table 9)
[5] = target: T2, recombinant human CD160 protein, …; assay: SPR (Biacore), design close to Example 2
[6] = target: T2, recombinant human CD160 protein, …; assay: BLI, biotinylated CD160 at 10 nM on streptavidin sensor, antibody 3.13-100 nM
[7] = target: T1, human CD160 (CD160 GPI isoform) on cells; assay: flow cytometry, percentage of labelled YT2C2 NK cells (2x10^5 cells), antibody 0.39 to 50 nM [panel C]
Experimental: The binding capacity of the anti-CD160 H7 antibody and of the H7 D12 variant in the IgG4, Fab and Fab-linker Fab format was evaluated during the labelling of surface CD160 expressed naturally on a clone of NK cell line (YT2C2), by measuring the percentage of cell labelled=percentage of binding (see FIG. 1C). For this, 2×10⁺⁵ YT2C2 cells were labelled with increasing concentration of antibodies (from 50 nM to 0.39 nM) and also with the appropriate control isotype. […] In FIG. 1C, IgG4 variants ELB01103 and ELB01104 bind more efficiently to the YT2C2 cells than the H7 IgG4 ELB01101 (which results in a EC₅₀ increased by a factor of 10 compared with H7 IgG4). This is also true for the Fab-linker-Fab format ELB01132. By contrast Fab format ELB01122 bind less efficiently to the YT2C2 cells than the H7 IgG4 ELB01101 (which results in a EC₅₀ decreased by a factor of 2 compared with H7 IgG4). This is certainly due to the monovalency of the Fab format.

[8] = target: T2, recombinant human CD160 protein, …; assay: BLI, biotinylated CD160 at 10 nM on streptavidin sensor, antibody 3.13-100 nM (row repeated from Table 9)
Experimental: (§1) All the experiments were carried out at 30° C. in the running buffer recommended by Fortebio (PBS with 0.1% (p/v) of bovine serum albumin (BSA) and 0.02% (v/v) Tween-20). This buffer was also used for diluting the various ligands and analytes. The samples deposited in a 96-well microplate (cat #738-0026, Dutscher) were shaken at 1000 revolutions per minute.
(§2) The dissociation constants and the association (kₒₙ) and dissociation (kdis) rate constants for each antibody were calculated by applying a 1:1 interaction model, with overall mathematical modelling of curves (fit) (Rmax bound by the sensor) on the ForteBio 9.0 data analysis software.

[9] = target: T2, recombinant human CD160 protein, …; assay: BLI (Octet K2), biotinylated hCD160-His on streptavidin sensor, antibody as analyte
Experimental: as §1
Between the measurements, the surfaces of the biosensor were regenerated by exposing them to 3 cycles of 5 sec in 10 mM glycine, pH 2, followed by 5 sec in running buffer. The association and dissociation phases were measured for 300 seconds. All the measurements were corrected for the basic drift by subtracting a reference well with a ligand subjected only to the running buffer.
as §2

[10] = target: T2, recombinant human CD160 protein, …; assay: BLI, biotinylated CD160 at 10 nM on streptavidin sensor, antibody 3.13-100 nM; remark: listed apart in the source
Experimental: as §1, §2

Binder	EC50 of NK cell activation (IFN-γ, CD69), improvement against ELB02101 [1]	Gain in KD/respective IgG [2]	median fluorescence, factor against H7 IgG1 [3]	Kd [4]	koff [4]	kon [4]	Gain in KD/respective IgG [5]	Kd [5]	koff [5]	kon [5]	Kd [6]	koff [6]	kon [6]	further results
B1	2 to 3 logs	1.9 fold	3 fold	1.55 nM	0.000654 s⁻¹	422000 M⁻¹ s⁻¹	2.7 fold	4.5 nM	0.00113 s⁻¹	251000 M⁻¹ s⁻¹	1.55 nM	0.000654 s⁻¹	422000 M⁻¹ s⁻¹	–
B2	–	–	–	–	–	–	–	–	–	–	–	–	–	EC50 (read off the curve) [7]: ~2 nM
B3	–	–	–	2.94 nM	0.00109 s⁻¹	370000 M⁻¹ s⁻¹	–	12 nM	0.00251 s⁻¹	209000 M⁻¹ s⁻¹	2.94 nM	0.00109 s⁻¹	370000 M⁻¹ s⁻¹	Kd [8]: 2.94 nM; koff [8]: 0.00109 s⁻¹; kon [8]: 370000 M⁻¹ s⁻¹; Binding response, at 50 nM of anti-CD160 [9]: 1.01 nm (arbitrary units); Kd [9]: 4 nM; koff [9]: 0.00235 s⁻¹; kon [9]: 587000 M⁻¹ s⁻¹
B4	–	–	3 fold	–	–	–	–	–	–	–	–	–	–	EC50 of IFN-gamma production by NK cells, additional improvement against the IgG1 variants [1]: 2 logs; EC50 of IFN-gamma production by NK cells, improvement against ELB02101 [1]: 4 logs; Kd [10]: 1.52 nM; koff [10]: 0.000679 s⁻¹; kon [10]: 447000 M⁻¹ s⁻¹
B5	2 to 3 logs	2 fold	3 fold	1.47 nM	0.000651 s⁻¹	442000 M⁻¹ s⁻¹	3 fold	3.9 nM	0.000877 s⁻¹	223000 M⁻¹ s⁻¹	1.47 nM	0.000651 s⁻¹	442000 M⁻¹ s⁻¹	–

Reference: patent publication US20200109211A1 (ELSALYS BIOTECH, published 2020)
